This assay concerns IL-8. The assay can be described thus: LPS stimulated IL-8 ELISA in U937 macrophages, PAAG and lactoferrin. The assay is classed as cell-based, human. The note with it: 100 ng/ml lactoferrin pretreatment 1 hour, LPS stimulation; at 24 hours; FIG. 31. A general note: In an ELISA, binding on a coated surface is turned into a signal by an enzyme label.

B1: lactoferrin: Lactoferrin, comparator pretreatment at 100 ng/ml (protein, UniProt P02788 20-710, looked up)
Lactotransferrin: GRRRSVQWCAVSQPEATKCFQWQRNMRKVRGPPVSCIKRDSPIQCIQAIAENRADAVTLDGGFIYEAGLAPYKLRPVAAEVYGTERQPRTHYYAVAVVKKGGSFQLNELQGLKSCHTGLRRTAGWNVPIGTLRPFLNWTGPPEPIEAAVARFFSASCVPGADKGQFPNLCRLCAGTGENKCAFSSQEPYFSYSGAFKCLRDGAGDVAFIRESTVFEDLSDEAERDEYELLCPDNTRKPVDKFKDCHLARVPSHAVVARSVNGKEDAIWNLLRQAQEKFGKDKSPKFQLFGSPSGQKDLLFKDSAIGFSRVPPRIDSGLYLGSGYFTAIQNLRKSEEEVAARRARVVWCAVGEQELRKCNQWSGLSEGSVTCSSASTTEDCIALVLKGEADAMSLDGGYVYTAGKCGLVPVLAENYKSQQSSDPDPNCVDRPVEGYLAVAVVRRSDTSLTWNSVKGKKSCHTAVDRTAGWNIPMGLLFNQTGSCKFDEYFSQSCAPGSDPRSNLCALCIGDEQGENKCVPNSNERYYGYTGAFRCLAENAGDVAFVKDVTVLQNTDGNNNEAWAKDLKLADFALLCLDGKRKPVTEARSCHLAMAPNHAVVSRMDKVERLKQVLLHQQAKFGRNGSDCPDKFCLFQSETKNLLFNDNTECLARLHGKTTYEKYLGPQYVAGITNLKKCSTSPLLEACEFLRK
As to B1, the IL-8 secretion suppression entry is “IL-8 secretion suppression”.

The values are drawn from patent US20170304355A1, “COMPOSITIONS AND METHODS OF USE THEREOF” (priority 2014, published 2017).
